# Target: CSL (RBPJ) (Mus musculus) (UniProt P31266)
# Assay: ITC
# Conditions: text: measurable, albeit weak, binding; ITC: 50 mM sodium phosphate pH 6.5, 150 mM NaCl, 10 C (10 uM CSL in cell, 100 uM DNA in syringe). EMSA: 150 mM KCl, 50 mM Tris pH 7.4, 1 mM DTT, 2% polyvinyl …
# Sequence of CSL (RBPJ) (Mus musculus) (P31266 53-474): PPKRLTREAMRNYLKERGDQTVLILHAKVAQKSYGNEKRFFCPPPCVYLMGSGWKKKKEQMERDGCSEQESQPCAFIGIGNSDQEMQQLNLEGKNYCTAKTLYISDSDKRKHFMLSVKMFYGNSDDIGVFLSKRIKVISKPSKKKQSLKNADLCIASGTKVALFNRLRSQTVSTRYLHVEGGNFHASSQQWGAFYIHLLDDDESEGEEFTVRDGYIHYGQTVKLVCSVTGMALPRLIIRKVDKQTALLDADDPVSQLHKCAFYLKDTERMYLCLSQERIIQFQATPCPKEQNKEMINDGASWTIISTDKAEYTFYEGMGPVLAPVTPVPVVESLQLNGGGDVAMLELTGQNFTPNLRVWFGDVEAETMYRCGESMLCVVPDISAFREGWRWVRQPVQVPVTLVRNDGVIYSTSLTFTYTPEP
substance,measurement,value
ITC duplex CGTGAAAA,Kd,> 50 µM
